This note sets out measurements from the supplement of paper PMC9170038.

The data set concerns MS2 coat protein. Put plainly: apparent KD of MS2 coat protein; designed switch direction (-1 OFF switch, 1 ON switch): -1; higher = weaker reporter binding. Put shortly:
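On Illumina chips, designed RNA switches with common flanks were made by stalled E. coli RNA polymerase. Titrations with SNAP-549-labelled MS2 coat protein, doubling from 0.7 or 1.5 nM to 3 µM, were done with no input, with 200 uM small-molecule ligand, or with an oligonucleotide input. Apparent KD is the median per design over clusters, from curve fits of normalised cluster fluorescence.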

Setting [1] is: Eterna round: R95, input ligand: FMN 200 uM.
Setting [2] is: Eterna round: R95, input ligand: microRNA oligo, concentration not stated.
The mark [3] stands for this setting: Eterna round: R95, input ligand: none.
[4] abbreviates: input ligand: microRNA oligo, concentration not stated.

In the case of “CAUGCUUCGGCAUGUACAAGCUUUUUGCUCGUCUUAUUAACAUGAGGAUCACCCAUGUCAAAGAGACCUCAUGUAUU [Sensor v3 - turn-off variant 2 - 3] (puzzle: Sensor v3, turn-off variant 2)”, the “apparent KD of MS2 coat protein” value worked out at 356 nM under setting [1], 16 nM under setting [2] and 263 nM under setting [3].

As for “UCAUGGUAGCAGGAUAUGCUUGUUUUUUUUUUUGCAGAAGGGCUUACAUGAGGAUCACCCAUGUGUUAGGUCUA [JR_E6_Sub067] (puzzle: Exclusion 6)”, the “apparent KD of MS2 coat protein” value under setting [2] stood at 27.6 nM.

As for “AGAUCACAUGAGGAUCACCCAUGUCAGGAUAUCGUCACUGGAGCUUCGGCUCCAGUGACGAGAAGGGACAUAAU [E1/2-A1] (Eterna round: R97, puzzle: Exclusion 1)”, the “apparent KD of MS2 coat protein” value by setting is: (input ligand: FMN 200 uM) 161 nM; (input ligand: none) 554 nM.

“UAACAAGCUUAAAGAUCCUACAUGAGGAUCACCCAUGUGCUCGUCUUGUAACGUACUGUGACGAAAGUCACGGUACG [JL TOV1 3.15] (Eterna round: R97, puzzle: Sensor, turn-off variant 1)”: the “apparent KD of MS2 coat protein” value was 521 nM (input ligand: FMN 200 uM) and 314 nM (input ligand: none).

With “UCGGCGCGAGGAUAUGCGGUUUGUGCUUUGGGCCCUCGCGUACAUGAGGAUCACCCAUGUAGAAGGCGCGCCGC [Apr-15 SS2-46] (puzzle: Exclusion 2)”, the “apparent KD of MS2 coat protein” value under setting [2] amounted to 95.6 nM.

With “AUUGUUUAUGUAGGAUAUGCCUGGCGUGCCUUUGCAGAAGGACAUGAGGAUCACCCAUGUAUUGCGGUCUGCGUUCAGAUCGCU [salish99_ExNG1_r4_033] (Eterna round: R96, puzzle: Exclusion NG 1)”, the “apparent KD of MS2 coat protein” value reads like this: (input ligand: FMN 200 uM) 44.4 nM; under setting [4], 28.7 nM; (input ligand: none) 30.7 nM.

In the case of “AUGGGUCGGGAGGAUAUUCGGGCUCAUGGGCUUGGAGAAGGCUCGACAUGAGGAUCACCCAUGUAAGUGUUCUU [-25, -23.1 kcal, A 22%] (Eterna round: R97, puzzle: Exclusion 6)”, the “apparent KD of MS2 coat protein” value runs as follows: (input ligand: FMN 200 uM) 550 nM; (input ligand: none) 32.2 nM.

Regarding “UUAUUAUAUGUAGGAUAUGCAUAUUAUUAUUAUGCAGAAGGACAUGAGGAUCACCCAUGUAUAUUAUUAUUAUAUAUUGUAUAU [Title] (Eterna round: R96, puzzle: Exclusion NG 1)”, the “apparent KD of MS2 coat protein” value under setting [4] was determined as 23.2 nM.

Take “UAUUACUCAGGAUAUAUGAUGUGAAACAUGAGGAUCACCCAUGUAAUAUUAUGGAUGUAAAUAGAAGGGAGAUAAU [Mat - Exclusion 5 - JL mod - D21] (puzzle: Exclusion 5)”: the “apparent KD of MS2 coat protein” value by setting is: under setting [1], 37.1 nM; under setting [2], 51.1 nM; under setting [3], 56.9 nM.

Consider “AAUACAAGUAAGAUCCUAAACAUGAGGAUCACCCAUGUGCUCGUCUUAUAAAGUACUAUCACGAAAGUGAUAGUACA [Sensor 3, v1 - 66] (puzzle: Sensor v3, turn-off variant 1)”, for which the “apparent KD of MS2 coat protein” value was 48.7 nM under setting [1], 314 nM under setting [2] and 37.5 nM under setting [3].

Consider “UUAGAUAGGUCAGGAUAUCGAUUAUUGUAUAGUAUGAUUUACAUGAGGAUCACCCAUGUUAAAUACGAGAAGGGACGUUAGAUU [JR_ExcNG2_Sub022] (Eterna round: R96, puzzle: Exclusion NG 2)”, for which, under setting [4], the “apparent KD of MS2 coat protein” value was 16.9 nM.

Take “UGUGCAACAGGAUAUAUGUGGCGUCCGUGAGGACGAAGGUUACAUGAGGAUCACCCAUGUAGAAGGGUUGUACU [Mat - Exclusion 2 - JL Mod - D24] (Eterna round: R97, puzzle: Exclusion 2)”: the “apparent KD of MS2 coat protein” value reads like this: (input ligand: FMN 200 uM) 218 nM; (input ligand: none) 68.5 nM.

As to “UGUACUAACACGAGAGUGUUAGUACUAUAAGCUUGUGUUACAUGAGGAUCACCCAUGUCCUCAUAAGCUCGUCUUGA [Mat - Sensor v3 - Turn-off var 2 - D94] (puzzle: Sensor v3, turn-off variant 2)”, the “apparent KD of MS2 coat protein” value runs as follows: under setting [1], 40.4 nM; under setting [2], 285 nM; under setting [3], 34 nM.

As for “AUUUUAAUAUAGGAUAUCGAAAUAAUUAUUUAACGAGAAGGAUGAACAUGAGGAUCACCCAUGUGGUAUCAUGG [Mat - Exclusion 6 - JL Mod - D32] (puzzle: Exclusion 6)”, the “apparent KD of MS2 coat protein” value reads like this: under setting [1], 178 nM; under setting [2], 159 nM; under setting [3], 163 nM.

On to “AUACCACGAGGAUAUCGUCUAUUUCACAUGAGGAUCACCCAUGUUAUCUUUGUUUCGUUUCGAGAAGGCGUGUUUU [JR_E5_Sub077] (puzzle: Exclusion 5)”, for which, under setting [2], the “apparent KD of MS2 coat protein” value turned out to be 30.1 nM.

As to “GUGCGGUGAGGAUAUACGUAGGUGAAAAUCUGUGUGUUCCUACAUGAGGAUCACCCAUGUAGAAGGCAUGGCAC [LRO-Excl2-13] (puzzle: Exclusion 2)”, under setting [2], the “apparent KD of MS2 coat protein” value is 90.5 nM.

Regarding “AAAAGAAGUGUUAGGAUAUGUGGAAGUAGAAAGACACAGAAGGAACAUGAGGAUCACCCAUGUGGCCUAAGAAC [Bibire] (puzzle: Brourd's mod of Exclusion 4)”, the “apparent KD of MS2 coat protein” value runs as follows: under setting [1], 15.4 nM; under setting [2], 10.5 nM; under setting [3], 11.6 nM.

On to “CCUAUGUGAGGAUAUCACUGGUCUUUUCAUUAGAUGAUCAGUGAGAAGGCACAUGAGGAUCACCCAUGUCAGUG [Ex4 - 3 - 53] (puzzle: Exclusion 4)”, for which, under setting [2], the “apparent KD of MS2 coat protein” value was found to be 71.8 nM.

On to “AAGAAACAUGAGGAUCACCCAUGUGAGGAUAUGAAAAAGAAAAGAAAAGAAAGAAGUAUCAGAAGGCACAAAGG [salish99-ex1_r3_023] (puzzle: Exclusion 1)”, for which the “apparent KD of MS2 coat protein” value by setting is: under setting [1], 57.6 nM; under setting [2], 38.6 nM; under setting [3], 62.8 nM.

On to “UGACAGCUAGGAUAUGGGCGUGCUUACAUGAGGAUCACCCAUGUGGUAUCUGAGUAGCACCCAGAAGGAGCCCGCG [Eternabot (L2) Solution 87] (Eterna round: R97, puzzle: Exclusion 5)”, for which the “apparent KD of MS2 coat protein” value by setting is: (input ligand: FMN 200 uM) 1350 nM; (input ligand: none) 656 nM.

For the sequence “AAAGAACAUGAGGAUCACCCAUGUGAGGAUAUGCGAAAACCGCUGGCGCACCAGACGGGCAGAAGGCAUAUGGU [Aonustiri] (puzzle: Exclusion 1)”, the “apparent KD of MS2 coat protein” value under setting [2] amounted to 48.9 nM.

Consider “GAAAAGUGAGGAUAUGGUAAAAGAAAAAGAAAAAAAAAACUCCAGAAGGCACAUGAGGAUCACCCAUGUAAAAG [salish99_ex4_r3_004] (puzzle: Exclusion 4)”, for which the “apparent KD of MS2 coat protein” value reads like this: under setting [1], 33.5 nM; under setting [2], 24.5 nM; under setting [3], 24 nM.

Turning to “AGGUGUCUCUGGAAACAUGAGGAUCACCCAUGUUGAGUUAGCGAGGAUAUCGGUAACCAUUGUUAUGAGAAGGCGCAAACCAGA [Ex NG3 #39] (Eterna round: R96, puzzle: Exclusion NG 3)”, the “apparent KD of MS2 coat protein” value (input ligand: FMN 200 uM) came out at 14.8 nM, the “apparent KD of MS2 coat protein” value under setting [4] was 18.3 nM and the “apparent KD of MS2 coat protein” value (input ligand: none) amounted to 25.4 nM.

Consider “CAUUAAACGGAGGAUAUCCUAUAUAUAAUAAUAGGAGAAGGUCGUACAUGAGGAUCACCCAUGUGUGGACAUGG [something] (puzzle: Exclusion 6)”, for which the “apparent KD of MS2 coat protein” value was 107 nM under setting [1], 206 nM under setting [2] and 249 nM under setting [3].
